Here are results for 1 substance from publication PMC2253824.

This assay concerns the target TTC4, endogenous in Hela cells (human (endogenous in Hela)) (UniProt O95801). As to the kind of experiment: co-IP; SDS-PAGE of the anti-TTC4 immune pellet stained with colloidal coomassie blue; data not shown.

TTC4, endogenous in Hela cells (human (endogenous in Hela)), sequence (O95801 whole entry): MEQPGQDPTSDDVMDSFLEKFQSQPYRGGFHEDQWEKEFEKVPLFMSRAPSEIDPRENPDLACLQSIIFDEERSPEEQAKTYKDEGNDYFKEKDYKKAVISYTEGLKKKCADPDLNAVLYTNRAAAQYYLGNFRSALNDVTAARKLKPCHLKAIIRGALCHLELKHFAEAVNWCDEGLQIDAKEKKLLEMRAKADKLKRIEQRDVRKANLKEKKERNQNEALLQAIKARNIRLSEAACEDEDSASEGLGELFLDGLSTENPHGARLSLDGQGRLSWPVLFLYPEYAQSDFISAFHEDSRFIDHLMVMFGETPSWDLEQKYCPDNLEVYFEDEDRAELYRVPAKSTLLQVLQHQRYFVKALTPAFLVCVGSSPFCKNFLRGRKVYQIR
HSP70, endogenous in Hela cells, sequence (P11142 whole entry): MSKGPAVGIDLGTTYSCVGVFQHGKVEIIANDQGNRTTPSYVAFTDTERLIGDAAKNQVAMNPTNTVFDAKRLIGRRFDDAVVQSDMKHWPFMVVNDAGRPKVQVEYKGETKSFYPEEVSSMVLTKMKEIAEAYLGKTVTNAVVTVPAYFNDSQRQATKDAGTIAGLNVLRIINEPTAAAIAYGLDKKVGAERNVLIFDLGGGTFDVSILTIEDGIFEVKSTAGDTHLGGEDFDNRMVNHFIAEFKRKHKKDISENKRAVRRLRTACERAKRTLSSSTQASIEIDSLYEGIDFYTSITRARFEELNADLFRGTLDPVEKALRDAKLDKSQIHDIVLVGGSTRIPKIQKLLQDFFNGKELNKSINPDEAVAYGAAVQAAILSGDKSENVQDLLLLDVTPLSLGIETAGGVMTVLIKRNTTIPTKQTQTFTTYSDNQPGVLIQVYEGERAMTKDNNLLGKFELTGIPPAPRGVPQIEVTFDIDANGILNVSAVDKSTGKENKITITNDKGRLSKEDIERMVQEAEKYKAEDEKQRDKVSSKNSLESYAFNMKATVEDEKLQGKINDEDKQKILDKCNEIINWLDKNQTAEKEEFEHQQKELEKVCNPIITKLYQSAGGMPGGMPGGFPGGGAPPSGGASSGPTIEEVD

In the case of “HSP70, endogenous in Hela cells (from UniProt P11142 1-646) (natural protein)”, the level in the immune pellet (colloidal coomassie) came out at 20%.
